Source: patent US20150141617A1, “PRODUCTION AND PURIFICATION OF ACTIVE EUKARYOTIC FORMYLGLYCINEGENERATING ENZYME (FGE) VARIANTS” (Universität Bielefeld, priority 2013, published 2015)

Assays:
steroid sulfatase (STS) = assay: Steroid sulfatase (STS) activity assay after co-expression with FGE in MSDi Tet-On cells; format: cell-based, human; details: vs STS expressed alone; doxycycline induction
Procedure: Activity assays of STS were performed as described earlier (15, 23). For western blot analysis, polyclonal antisera against FGE and steroid sulfatase were used as primary antibodies. Horseradish peroxidase-conjugated goat anti-rabbit antibody was used as secondary antibodies. Signals of steroid sulfatase are given as relative amounts, i.e. related to signal intensities detected in cells expressing steroid sulfatase only. Relative specific sulfatase activities were calculated, i.e. catalytic activity divided by the western blot signal (arbitrary units) and referred to that of cells expressing the sulfatase only (relative specific sulfatase activity=1). Absolute values for this reference are given in the legends.
Using this method the inventors examined whether the RYSR motif is required for the activation of sulfatases. cDNAs encoding steroid sulfatase (STS) alone or co-transfected along with cDNAs encoding RYSR-motif alanine variants of FGE in immortalized MSD Tet-On cells were transfected (FIG. 9C). Upon doxycycline induction, STS was barely active when expressed alone, whereas co-expression with FGE-wt increased the activity of STS approx. 50-fold, as observed previously (12).

PC5a = target: T1, PC5a (Mus musculus, UniProt Q04592); assay: FGE processing in CHO-FD11 Tet-On cells co-expressing PC5a; format: cell-based, murine; details: PC5a coexpression
T1 construct: expressed in transfected cells; host or cells: CHO-FD11 Tet-On cells, transient co-transfection with pBI-FGE-HA
T1 sequence (Q04592 117-915 isoform Q04592-2 limits assumed): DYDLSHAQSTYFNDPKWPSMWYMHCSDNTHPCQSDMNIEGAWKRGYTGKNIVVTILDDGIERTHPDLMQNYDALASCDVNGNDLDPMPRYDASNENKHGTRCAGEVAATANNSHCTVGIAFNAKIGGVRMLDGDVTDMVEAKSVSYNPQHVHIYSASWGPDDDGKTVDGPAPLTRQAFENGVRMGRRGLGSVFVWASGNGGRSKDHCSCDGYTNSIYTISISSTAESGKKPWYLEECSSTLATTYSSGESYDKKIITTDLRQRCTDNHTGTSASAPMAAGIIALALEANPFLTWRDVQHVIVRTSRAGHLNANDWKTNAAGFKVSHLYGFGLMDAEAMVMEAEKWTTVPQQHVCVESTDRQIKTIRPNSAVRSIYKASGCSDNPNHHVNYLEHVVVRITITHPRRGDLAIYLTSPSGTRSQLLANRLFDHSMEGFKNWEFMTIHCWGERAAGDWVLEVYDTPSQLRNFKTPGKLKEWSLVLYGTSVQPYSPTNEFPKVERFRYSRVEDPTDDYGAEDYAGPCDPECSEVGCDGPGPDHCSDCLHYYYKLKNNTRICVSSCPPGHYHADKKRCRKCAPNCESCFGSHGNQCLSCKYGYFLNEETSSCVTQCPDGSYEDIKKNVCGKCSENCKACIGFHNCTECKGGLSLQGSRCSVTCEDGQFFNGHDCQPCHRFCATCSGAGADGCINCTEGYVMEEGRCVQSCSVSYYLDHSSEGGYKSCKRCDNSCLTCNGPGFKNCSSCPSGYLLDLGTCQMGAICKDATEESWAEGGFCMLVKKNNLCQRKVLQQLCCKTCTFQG
Text: The resulting constructs were verified by full-length sequencing of the coding region to exclude any PCR prone errors. Plasmids for expression of the PCs encoding human furin (Gene ID 5045), human PACE4 (=PCSK6, Gene ID 5046), murine […] (=Pcsk5, Gene ID 18552) and rat PC7 (=Pcsk7, Gene ID 29606) were kindly provided by Abdel-Majid Khatib (18). Note that the PC cDNAs were encoded as pIRES constructs coding also for enhanced green fluorescence protein (EGFP) such that EGFP expression levels serve as a measure of the expression levels of PCs.
3 μg of pSB-FGE-RGS-His6 vector was used for single transfections of HT1080, HeLa, HEK 293, BHK and CHO cells. Conditioned medium was collected after 24 h and centrifuged (500×g, 5 min) Cells were washed once with PBS, treated with trypsin (Lonza) and pelleted by 250×g to remove the medium. Cell pellets were resuspended in PBS (pH 7.4) containing protease inhibitor (PI) cocktail (Sigma) and lysed by sonication 3×10 s on ice. For co-expression of FGE with one of the PCs in CHO-FD11 Tet-On cells 2 μg of pBI-FGE-HA and 2 μg of the plasmids encoding PCs (see above) were used for transient transfection. In case of transient transfections using pBI-vector constructs the protein expression was induced by replenishing the medium with medium containing 2 μg/mL doxycycline (BD Biosciences) at 5 h post-transfection. […]

B1: FGE: human wild type full length formylglycine generating enzyme with RYSR furin cleavage motif, SEQ ID NO:2 (protein)
chain: ADEFSQEAGTGAGAGSLAGSCGCGTPQRPGAHGSSAAAHRYSREANAPGPVPGERQLAHSKMVPIPAGVFTMGTDDPQIKQDGEAPARRVTIDAFYMDAYEVSNTEFEKFVNSTGYLTEAEKFGDSFVFEGMLSEQVKTNIQQAVAAAPWWLPVKGANWRHPEGPDSTILHRPDHPVLHVSWNDAVAYCTWAGKRLPTEAEWEYSCRGGLHNRLFPWGNKLQPKGQHYANIWQGEFPVTNTGEDGFQGTAPVDAFPPNGYGLYNIVGNAWEWTSDWWTVHHSVEETLNPKGPPSGKDRVKKGGSYMCHRSYCYRYRCAARSQNTPDSSASNLGFRCAADRLPTMDSGRGSHHHHHHH
modifications: cloned matured acitve full length FGE with 6x His tag on C-terminus
Which “increase of STS activity on co-expression” value (steroid sulfatase (STS)) does the source give for B1 here?
Its value is “approx. 50 fold”.

What about the “processing of FGE” value (PC5a) of the same molecule?
The value was “low efficiency”.
